In the supplement of paper PMC7125110:
± gives the standard error. For some of these results: This sample holds only a part of the variants without activity.

B1: glmS ribozyme (parent)
chain: AUAAAAGCGCCAGAACUACAGAAAUGUAGUUGACGAGGAGGAGGUUUAUCGAAUUUUCGGCGGAUGCCUCCAAA

How the values were obtained:
Conditions in all cases: with glucosamine-6-phosphate
glucosamine-6-phosphate [1] = variants of: B1; assay: kcat; higher = faster cleavage; RNA array
How it was run: (§1)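 Weighted Michaelis–Menten fits across concentrations supplied kcat and KM, based on kobs from one- or two-exponential decay fits to normalised per-tile medians. The data came from barcoded ribozyme variants transcribed in situ by E. coli RNA polymerase on sequenced MiSeq chips and tracked at 37 °C by a hybridised Cy3 probe. Glucosamine-6-phosphate (40 μM to 10 mM) in HEPES/KCl/Mg(OAc)2 buffer was flowed in.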

glucosamine-6-phosphate [2] = variants of: B1; assay: KM; higher = weaker cofactor use; RNA array
How it was run: as §1

glucosamine-6-phosphate [3] = variants of: B1; assay: self-cleavage kobs at 40 uM GlcN6P; higher = faster cleavage; RNA array
How it was run: as §1

glucosamine-6-phosphate [4] = variants of: B1; assay: self-cleavage kobs at 160 uM GlcN6P; higher = faster cleavage; RNA array
How it was run: as §1

glucosamine-6-phosphate [5] = variants of: B1; assay: self-cleavage kobs at 640 uM GlcN6P; higher = faster cleavage; RNA array
How it was run: as §1

glucosamine-6-phosphate [6] = variants of: B1; assay: self-cleavage kobs at 2500 uM GlcN6P; higher = faster cleavage; RNA array
How it was run: as §1

glucosamine-6-phosphate [7] = variants of: B1; assay: self-cleavage kobs at 10000 uM GlcN6P; higher = faster cleavage; RNA array
How it was run: as §1

Variant | kcat (glucosamine-6-phosphate [1]) [s⁻¹] | KM (glucosamine-6-phosphate [2]) [µM] | self-cleavage kobs at 40 uM GlcN6P (glucosamine-6-phosphate [3]) [s⁻¹] | self-cleavage kobs at 160 uM GlcN6P (glucosamine-6-phosphate [4]) [s⁻¹] | self-cleavage kobs at 640 uM GlcN6P (glucosamine-6-phosphate [5]) [s⁻¹] | self-cleavage kobs at 2500 uM GlcN6P (glucosamine-6-phosphate [6]) [s⁻¹] | self-cleavage kobs at 10000 uM GlcN6P (glucosamine-6-phosphate [7]) [s⁻¹]
A6G G43C C68G | 0.000785 ± 0.00019 | 1000 ± 470 | 3.71e-05 ± 1.7e-05 | 9.17e-05 ± 2.6e-05 | 0.000423 ± 8.3e-05 | 0.000399 ± 0.00011 | 0.000819 ± 0.00015
C10G C67U | < 1e-05 | – | < 1e-05 | – | – | – | –
A6U U30C C68U | 2.13e-05 ± 7.2e-06 | – | – | – | < 1e-05 | – | –
C10G C11G | < 1e-05 | – | < 1e-05 | < 1e-05 | – | – | –
A6C U69C | 3.1e-05 ± 9.9e-06 | – | < 1e-05 | – | – | 4.93e-05 ± 2e-05 | –
A6C C71A | 2.27e-05 ± 4.2e-07 | 205 ± 38 | – | – | – | – | 2.19e-05 ± 1.1e-05
A6C C71G | 1.2e-05 ± 1.5e-06 | – | < 1e-05 | – | – | – | –
C8U U49A | < 1e-05 | – | < 1e-05 | – | < 1e-05 | < 1e-05 | < 1e-05
C8U C67A | < 1e-05 | – | – | – | < 1e-05 | – | –
G7U A53C C58A U69G C70U | 0.000741 ± 0.00023 | – | 7.41e-05 ± 3.3e-05 | – | – | 0.000875 ± 0.00036 | –
A6U G41U | 4.92e-05 ± 3.2e-06 | – | – | – | – | – | –
A6C C10U C67G U69A | 2.09e-05 ± 8.6e-06 | – | – | – | – | – | –
C11A G60A | < 1e-05 | – | – | – | – | – | –
G9U C11A | < 1e-05 | 159 ± 62 | < 1e-05 | < 1e-05 | < 1e-05 | – | –
C11A C61U C67G | < 1e-05 | – | – | – | – | – | –
G7A U45C | < 1e-05 | – | – | – | < 1e-05 | – | –
C8G C10A | < 1e-05 | – | < 1e-05 | < 1e-05 | < 1e-05 | < 1e-05 | < 1e-05
G7A G38A | < 1e-05 | – | – | – | – | – | –
C10G G59U | 3.49e-05 ± 2.3e-06 | 1050 ± 290 | < 1e-05 | – | – | 2.34e-05 ± 6.6e-06 | 3.25e-05 ± 8.1e-06
C8A G29A C50G G66A C70G | 7.47e-05 ± 2e-05 | – | – | 9e-05 ± 1.5e-05 | 4.95e-05 ± 1.7e-05 | 7.56e-05 ± 1.6e-05 | –
A6G A14G | 0.00132 ± 0.00026 | 3740 ± 1200 | – | 7.41e-05 ± 1.7e-05 | 0.000162 ± 4.1e-05 | 0.000514 ± 7.9e-05 | 0.000992 ± 0.00016

Variant | kcat (glucosamine-6-phosphate [1]) [s⁻¹] | KM (glucosamine-6-phosphate [2]) [µM] | self-cleavage kobs at 40 uM GlcN6P (glucosamine-6-phosphate [3]) [s⁻¹] | self-cleavage kobs at 160 uM GlcN6P (glucosamine-6-phosphate [4]) [s⁻¹] | self-cleavage kobs at 640 uM GlcN6P (glucosamine-6-phosphate [5]) [s⁻¹] | self-cleavage kobs at 2500 uM GlcN6P (glucosamine-6-phosphate [6]) [s⁻¹] | self-cleavage kobs at 10000 uM GlcN6P (glucosamine-6-phosphate [7]) [s⁻¹]
A6G U54G | 0.000277 ± 1.2e-05 | 1230 ± 140 | – | – | 9.48e-05 ± 1.7e-05 | 0.000179 ± 2.9e-05 | 0.000251 ± 3.1e-05
C10U G35C | < 1e-05 | – | < 1e-05 | < 1e-05 | < 1e-05 | – | –
C10U A36G | < 1e-05 | – | < 1e-05 | – | < 1e-05 | – | < 1e-05
A6U A39U C70U | 6.69e-05 ± 6e-06 | 506 ± 210 | – | – | 3.98e-05 ± 1.7e-05 | 4.96e-05 ± 1.8e-05 | 6.76e-05 ± 1.9e-05
A6G U69A | < 1e-05 | – | – | < 1e-05 | – | – | < 1e-05
C8A G37U C70A | 0.00017 ± 4.3e-05 | – | 7.9e-05 ± 2.3e-05 | – | 0.000214 ± 6.2e-05 | 0.000331 ± 0.00011 | 0.000139 ± 3.4e-05
A6U C16U C68U | 9.14e-05 ± 3.2e-06 | 625 ± 120 | – | – | – | 7.4e-05 ± 1.9e-05 | 8.55e-05 ± 2e-05
C10U C50A | < 1e-05 | – | < 1e-05 | – | – | – | < 1e-05
G7A A36U A39C C68A C71G | 1e-05 ± 4e-06 | – | – | – | – | – | –
C10U G29C | 1.05e-05 ± 2.4e-06 | – | – | – | – | – | –
C10U G29A | < 1e-05 | – | < 1e-05 | – | – | – | < 1e-05
G9A A48G G51A G63A | 1.15e-05 ± 4.5e-06 | – | – | – | – | – | –
G7A U47G C61U | 1.24e-05 ± 4e-06 | – | – | – | – | – | –
C11A A14G U65G | 0.000152 ± 6.2e-06 | 1370 ± 200 | – | – | 5.21e-05 ± 1.7e-05 | 9.32e-05 ± 2e-05 | 0.000135 ± 1.7e-05
A6G U30G | 0.000154 ± 1.6e-05 | 5370 ± 1400 | < 1e-05 | < 1e-05 | – | 5.13e-05 ± 1.9e-05 | 9.98e-05 ± 1.4e-05
C10U A53G | 2.78e-05 ± 1.2e-06 | 6420 ± 600 | < 1e-05 | – | – | – | 1.69e-05 ± 7.4e-06
A6G A53U | 0.000303 ± 3.8e-05 | 1940 ± 560 | – | – | 6.78e-05 ± 1.6e-05 | 0.000191 ± 2.7e-05 | 0.000241 ± 3.5e-05
C11A A39U | 0.000122 ± 2.3e-05 | – | – | – | – | 7e-05 ± 9.6e-06 | 9.43e-05 ± 1.2e-05
A6U U31A | 0.000122 ± 2.6e-05 | – | – | – | – | 8.83e-05 ± 2.1e-05 | 9.85e-05 ± 2.2e-05
A6U U31G | 8.41e-05 ± 1e-05 | – | < 1e-05 | – | – | 7.42e-05 ± 1.9e-05 | 7.27e-05 ± 1.2e-05
C10A C67U C71G | 2.93e-05 ± 1.4e-05 | – | – | – | – | – | –
